From patent publication US20140050720A1, “ULTRALONG COMPLEMENTARITY DETERMINING REGIONS AND USES THEREOF” (THE SCRIPPS RESEARCH INSTITUTE, priority 2012, published 2014) come the findings set out here.

Common to all, as to format: cell-based
In test [1] the target is T1, GLP-1 receptor (GLP-1R) (Homo sapiens, UniProt P43220).
T1 construct: expressed in transfected cells; host or cells: HEK293 cells expressing surface GLP-1R and a cAMP responsive luciferase reporter
Description: GLP-1R activation, cAMP responsive luciferase reporter in HEK293 cells. The settings on record: HEK293 cells expressing GLP-1R, 24 h. On the procedure: HEK293 cells expressing surface GLP-1R and cAMP responsive luciferase reporter gene were seeded in 384 well plates at a density of 5000 cells per well. […] Subsequently, luciferase assay was performed using One-Glo luciferase reagent according manufacture's instruction (Promega).
HEK293 cells expressing surface GLP-1R and cAMP responsive luciferase reporter gene were seeded in 384 well plates at a density of 5000 cells per well. After 24 h incubation at 37° C. with 5% CO2, cells were treated with various concentrations of peptides and BLV1H12-GLP-1 clip fusion proteins and incubated for another 24 h. Subsequently, luciferase assay was performed using One-Glo luciferase reagent according manufacture's instruction (Promega).

For test [2], the system named is Human T cells. Description: Inhibition of T cells activation (secreted TNF-α ELISA). The settings on record: T cells activated by anti-CD3 and CD28 antibodies, 24 h. As to the method:
Human PBMCs were isolated from fresh venous blood of healthy donors through ficoll gradient centrifugation, followed by resuspension in RPMI1640 medium with 10% FBS and plating in 96-well plates at a density of 1×10^6 cells/mL. Human T cells were purified from the isolated PBMCs using T cell enrichment kit. Purified PBMCs and T cells were pretreated for 1 h at 37° C. with 5% CO2 with various concentrations of purified BLV1H12-Moka1 fusion antibodies and then activated by anti-CD3 and CD28 antibodies. After 24 h treatment, supernatant was collected for measurement of the levels of secreted TNF-α using ELISA kit.
Human T cells were purified from the isolated PBMCs using T cell enrichment kit. Purified T cells were pretreated for 1 h at 37° C. with 5% CO2 with various concentrations of purified BLV1H12-VM24 fusion antibodies and then activated by anti-CD3 and CD28 antibodies. After 24 h treatment, supernatant was collected for measurement of the levels of secreted TNF-a using ELISA kit. FIGS. 18B-C and Table 15 show the BLV1H12-VM24 fusion antibodies inhibitory activities on T cells activation.
In general terms: In an ELISA, binding on a coated surface is turned into a signal by an enzyme label.

Test [3] concerns TF-1 cells. Description: Proliferation assay on TF-1 cells (AlamarBlue). The settings on record: 72 h. On the procedure: TF-1 cells were obtained from American Type Culture Collection (ATCC), VA, and cultured in RPMI-1640 medium supplemented with 10% fetal bovine serum (FBS), penicillin, streptomycin and 2 ng/mL granulocyte-macrophage colony-stimulating factor (GM-CSF). For proliferation assay, TF-1 cells were washed three times with RPMI-1640 medium and resuspended in RPMI-1640 medium with 10% FBS and penicillin and streptomycin at a density of 1.5×10^5 cells/ml. Cells were plated in 96-well plates and treated with varied concentrations of BLV1H12-hEPO fusion antibodies. After 72 h of incubation at 37° C. with 5% CO2, cells viabilities were measured using AlamarBlue (Invitrogen) assay following manufacture's instruction. FIG. 21 and Table 18 show the proliferative activity of Ab-hEPO fusion antibodies on TF1 cells.
For orientation: Alamar Blue is a resazurin reagent that responds to reducing activity.

T1 sequence (P43220 24-463, species assumed): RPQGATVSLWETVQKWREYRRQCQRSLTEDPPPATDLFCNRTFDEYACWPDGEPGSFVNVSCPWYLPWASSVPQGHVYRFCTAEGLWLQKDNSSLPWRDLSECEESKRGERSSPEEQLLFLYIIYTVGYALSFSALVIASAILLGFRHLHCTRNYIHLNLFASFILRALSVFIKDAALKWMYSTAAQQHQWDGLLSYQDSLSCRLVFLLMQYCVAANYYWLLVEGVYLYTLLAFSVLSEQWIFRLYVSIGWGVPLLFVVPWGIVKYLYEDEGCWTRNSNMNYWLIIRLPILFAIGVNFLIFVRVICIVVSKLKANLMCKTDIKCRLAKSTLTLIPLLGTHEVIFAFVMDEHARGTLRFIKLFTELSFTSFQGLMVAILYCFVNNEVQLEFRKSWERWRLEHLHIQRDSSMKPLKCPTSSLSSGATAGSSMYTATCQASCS

With “Ab-Ex4(RN): BLV1H12-Ex-4 fusion antibody treated with Factor Xa protease to release N-terminal of Ex-4”, the “RLU (luciferase reporter)” value in test [1] (0.00248 nM) stood at 24120; in test [1] (0.00496 nM) it was 26320; in test [1] (0.00992 nM), 28140; in test [1] (0.01984 nM) it was 33500; in test [1] (0.03967 nM), 34180; in test [1] (0.07935 nM), 48860. The “RLU (luciferase reporter)” value in test [1] (0.31738 nM) is reported as 80740; in test [1] (0.63477 nM), 117240; in test [1] (1.26953 nM), 128740; in test [1] (2.53906 nM), 153820; in test [1] (5.07813 nM) it was 163020; in test [1] (10.15625 nM) it was 169360. The “RLU (luciferase reporter)” value in test [1] (20.3125 nM) came to 161380; in test [1] (40.625 nM) it was 154920; in test [1] (81.25 nM), 163700; in test [1] (162.5 nM) it was 163860; in test [1] (325 nM) it was 164160; in test [1] (650 nM), 155700. Moreover, in test [1] (1300 nM), the “RLU (luciferase reporter)” value is on record as 168740.
In the case of “Ab-Ex4: Exendin-4 with Factor Xa cleavage site and GGGGS linkers grafted into BLV1H12 CDR3H; DNA SEQ ID NO: 8”, the “RLU (luciferase reporter)” value in test [1] (1.26953 nM) was 6120; in test [1] (2.53906 nM) it was 6360; in test [1] (5.07813 nM), 8500; in test [1] (10.15625 nM) it was 10420; in test [1] (20.3125 nM), 19340; in test [1] (40.625 nM), 27960. In addition, the “RLU (luciferase reporter)” value in test [1] (81.25 nM) turned out to be 54800; in test [1] (162.5 nM), 90660; in test [1] (325 nM) it was 117900; in test [1] (650 nM), 134760.
For “Ab-VM24 L1: Vm24 in BLV1H12 CDR3H, linker=GGGGS; DNA SEQ ID NO: 13”, the “F.I. (secreted TNF-α, ELISA)” value in test [2] (0.45725 nM) was found to be 3427.004; in test [2] (1.37174 nM), 3265.969; in test [2] (4.11523 nM), 3499.82; in test [2] (12.34568 nM) it was 3627.431; in test [2] (37.03704 nM) it was 3575.4815; in test [2] (111.11111 nM) it was 3085.439. Moreover, the entries for the “F.I. (secreted TNF-α, ELISA)” value in test [2] (333.33333 nM) and in test [2] (1000 nM) were 1853.645 and 990.818, respectively.
Consider “Ab-VM24-L2: Vm24 in BLV1H12 CDR3H, first linker=GGGSGGGGS and second linker=GGGGSGGGS; DNA SEQ ID NO: 14”, for which the “F.I. (secreted TNF-α, ELISA)” value in test [2] (0.45725 nM) was 3156.626; in test [2] (1.37174 nM), 3345.846; in test [2] (4.11523 nM) it was 3518.316; in test [2] (12.34568 nM), 3607.5755; in test [2] (37.03704 nM), 3508.0475; in test [2] (111.11111 nM), 3220.2475. The “F.I. (secreted TNF-α, ELISA)” value in test [2] (333.33333 nM) amounted to 2465.838; in test [2] (1000 nM) it was 1306.0215.
With “Ab-hEPO: human EPO with GGGGS linkers grafted into BLV1H12 CDR3H; DNA SEQ ID NO: 10”, the “F.I. (AlamarBlue, cell viability)” value in test [3] (0.00236 nM) is given as 4198.65; in test [3] (0.01178 nM), 4757.196; in test [3] (0.05888 nM) it was 5265.069; in test [3] (0.2944 nM), 6430.723; in test [3] (1.472 nM), 8963.889; in test [3] (7.36 nM), 10330.18. Moreover, the “F.I. (AlamarBlue, cell viability)” value was found to be 10776.73 in test [3] (36.8 nM), 10330.44 in test [3] (184 nM), 4324.037 in test [3] (4.71E−04 nM) and 4361.92 in test [3] (9.42E−05 nM).
